Measured values taken from patent publication US20180280525A1 (published 2018).
Values belong to the binder of their own block, whether it stands above or below them. Numbered stars: 1 amine (or outer) side, 2 acyl side, 3 side chain; on linkers, the order of the positions; unused ones are H or OH. Bridge positions count the residues as written; N and C are the ends. Square brackets hold non-standard residues; d marks the D form. Ends that are not written are not given here. * marks the point of attachment. DOTA = O=C(O)CN1CCN(CC(=O)O)CCN(CC(=O)*)CCN(CC(=O)O)CC1; fluorescein = fluorescein label on the Lys side chain; Phe(4-Br) = N[C@@H](Cc1ccc(Br)cc1)C(=O)O; 1Nal = N[C@@H](Cc1cccc2ccccc12)C(=O)O; TBMB = c1c(C[*:1])cc(C[*:3])cc1C[*:2]; Tle = CC(C)(C)[C@H](N)C(=O)O; Sar = CNCC(=O)O

What was measured:
[1] = target: T1, human MT1-MMP hemopexin domain (human, UniProt P50281 319-511); experiment: FP competition, tracer A-(17-69-07)-A-Sar6-K(Fluorescein)
T1 construct: range 319-511; Secreted from HEK293 cells as soluble N-terminally His6-tagged protein; also called MT1-MMP hemopexin-like repeats; MMP14

[2] = target: T1, human MT1-MMP hemopexin domain; experiment: FP direct binding, fluoresceinated peptide titrated with hemopexin domain
[3] = target: T1, human MT1-MMP hemopexin domain; experiment: FP competition, human MT1-MMP hemopexin domain; tracer not given
[4] = target: T1, human MT1-MMP hemopexin domain; experiment: FP competition, human MT1-MMP hemopexin domain; method not given
[5] = target: T1, human MT1-MMP hemopexin domain; experiment: FP competition, tracer A-(17-69-12)-A-Sar6-K(Fluorescein)
[6] = target: T1, human MT1-MMP hemopexin domain; experiment: FP competition, Human/cyno MT1-MMP hemopexin domain
[7] = target: T1, human MT1-MMP hemopexin domain; experiment: FP competition, human MT1-MMP hemopexin domain; tracer not given; remark: listed apart in the source
[8] = target: T1, human MT1-MMP hemopexin domain; experiment: FP competition, human MT1-MMP hemopexin domain (n = 3; footnote e)
[9] = target: T2, dog MT1-MMP hemopexin domain (dog, UniProt A0A8I3MND9 318-511); experiment: FP competition, dog MT1-MMP hemopexin domain
T2 construct: domain: hemopexin domain
Protocol: Subsequently, the non-fluorescent competitor bicyclic peptide (usually just the bicycle core sequence) is titrated, such that it displaces the fluorescent tracer from the target protein. The displacement of the tracer is measured and associated with a drop in fluorescence polarisation. The drop in fluorescence polarisation is proportional to the fraction of target protein bound with the non-fluorescent titrant, and thus is a measure of the affinity of titrant to target protein.

[10] = target: T1, human MT1-MMP hemopexin domain; experiment: FP competition, human MT1-MMP hemopexin domain; tracer not given; remark: listed apart in the source
[11] = target: T1, human MT1-MMP hemopexin domain; experiment: FP competition, tracer A-(17-69-07)-A-Sar6-K(Fluorescein); remark: listed apart in the source
[12] = target: T1, human MT1-MMP hemopexin domain; experiment: FP competition, human MT1-MMP hemopexin domain; tracer not given; remark: listed apart in the source

Kd [3]: 0.8 nM
B3: 17-69-07-N252 (peptide)
chain: Ac-C[dA]NE[1Nal][dA]CEDF[Phe(4-Br)]D[Tle]C
modifications: linker 1-7-14 via TBMB; not fully specified (C-terminus); printed as Ac-(17-69-07) D-Ala1 1Nal4 D-Ala5 4BrPhe9 tBuGly11

Kd [4]: 0.95 nM
B4: 17-69-07-N147 (peptide)
peptide: {DOTA}-ACYNEFGCEDFYDIC
modifications: linker 2-8-15 via TBMB; not fully specified (C-terminus); also: DOTA loaded with cold 175Lu
notes: also called DOTA[Lu]-A-(17-69-07)

Kd [4]: 0.5 nM
B6: 17-69-07-N248 (peptide)
chain: {DOTA}-AC[dA]NE[1Nal][dA]CEDF[Phe(4-Br)]D[Tle]C
modifications: linker 2-8-15 via TBMB; not fully specified (C-terminus); also: 177Lu chelated in DOTA for biodistribution study

Kd [6]: 0.82 nM
Kd [7]: 0.82 nM
Kd [8]: 0.82 nM
Kd [9]: 0.9 nM
B7: 17-69-07-N219 (peptide)
peptide: GXACYNEFGCEDFYDIC
modifications: not fully specified; Sar x10 in the spacer; 3 Cys cyclised with TBMB
notes: also called G-Sar10-A-(17-69-07) (non-stabilised with spacer)

Kd [10]: 0.75 nM
Binder: Ac-CYNEWGCEDFYDIC (linker 1-7-14 via TBMB; not fully specified (C-terminus), also called Ac-(17-69-07) Trp4) [17-69-44-N002]

Kd [11]: 3.7 nM
Binder: ACMNQFGCEDFYDICA (linker 2-8-15 via TBMB; not fully specified (C-terminus), also called A-(17-69-12)-A) [17-69-12-N003]

Kd [2]: 692 nM
B8: 17-69-N004 (peptide)
peptide: ACKNRGFGCEDFYDICA[Sar][Sar][Sar][Sar][Sar][Sar]K(fluorescein)
modifications: linker 2-9-16 via TBMB; not fully specified (C-terminus)
notes: also called A-(17-69)-A-Sar6-K(Fl); A-(17-69)-A-Sar6-K(Fluorescein)

Further lines, the binder ahead of its results:

Binder: ACFGEFGCEDFYDICA (linker 2-8-15 via TBMB; not fully specified (C-terminus), also called A-(17-69-02)-A) [17-69-02-N001]
Kd [1]: 191 nM

B1: 17-69-12-N005 (peptide)
peptide: ACMNQFGCEDFYDICA[Sar][Sar][Sar][Sar][Sar][Sar]K(fluorescein)
modifications: linker 2-8-15 via TBMB; not fully specified (C-terminus)
notes: also called A-(17-69-12)-A-Sar6-K(Fl); A-(17-69-12)-A-Sar6-K(Fluorescein)
Kd [2]: 3.1 nM

B2: 17-69-07-N040 (peptide)
peptide: ACYNEFGCEDFYDICA[Sar][Sar][Sar][Sar][Sar][Sar]K(fluorescein)
modifications: linker 2-8-15 via TBMB; not fully specified (C-terminus)
notes: also called A-(17-69-07)-A-Sar6-K(Fl); A-(17-69-07)-A-Sar6-K(Fluorescein)
Kd [2]: 0.52 nM

B5: 17-69-07-N144 (peptide)
peptide: {DOTA}-ACYNEFGCEDFYDIC
modifications: linker 2-8-15 via TBMB; not fully specified (C-terminus); also: DOTA loaded with 177Lu
notes: Loaded with 177Lu for the biodistribution study; also called DOTA-A-(17-69-07)
Kd [4]: 0.5 nM

Binder: ACVNEFGCEDFYDICA (linker 2-8-15 via TBMB; not fully specified (C-terminus), also called A-(17-69-03)-A) [17-69-03-N001]
Kd [1]: 16.7 nM

Binder: ACYNEFGCEDFYDICA (linker 2-8-15 via TBMB; not fully specified (C-terminus), also called A-(17-69-07)-A) [17-69-07-N001]
Kd [5]: 1.65 nM

Binder: Ac-CYNEYGCEDFYDIC (linker 1-7-14 via TBMB; not fully specified (C-terminus), also called Ac-(17-69-07) Tyr4) [17-69-07-N057]
Kd [10]: 1.78 nM

Binder: Ac-CYNEF[dR]CEDFYDIC (linker 1-7-14 via TBMB; not fully specified (C-terminus)) [17-69-07-N120]
Kd [12]: 4.24 nM
